Assay results published in the supplement of paper PMC10567573.

B1: GLTSCR2 (parent)
chain: LARRRRRRQARREAEADKPRRLGR

Variants of: B1
Assay: protein stability index of a GFP-peptide fusion (GPS, HEK-293T) (PSI 1-6); higher = more stable
Conditions: c terminus: a fixed tail appended
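Further: lentivirally expressed fusions sorted by FACS into six bins by GFP to DsRed ratio, PSI derived from sequencing read proportions per bin multiplied by bin number.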

Protein stability index of substitutions, site by site:
K18: E 5.03; D 4.78; I 4.34; L 5.11; Q 4.97; T 4.29; A 4.89; M 5.14; V 5.01; H 4.98; S 4.74; C 5.07; G 4.91; P 5.41; R 5.02; N 4.96; W 3.88; F 5.1; Y 4.85
E13: I 4.73; N 4.59; T 4.83; Y 4.4; R 4.4; D 4.61; F 4.04; L 4.46; H 4.13; P 4.36; C 5.01; S 4.26; W 4.51; M 3.72; G 5.01; A 4.51; V 4.35; Q 4.88; K 4.37
A16: H 5.25; E 4.8; N 4.91; R 3.96; M 4.97; V 4.69; G 4.09; S 3.77; Y 4.61; K 4.32; P 4.61; Q 4.89; C 4.48; T 4.76; F 4.4; W 3.73; L 3.29; I 4.22; D 4.82
R12: P 4.6; T 4.98; W 4.34; Y 4.51; V 5.34
P19: R 4.54; G 4.57; S 4.16; C 4.29; T 4.39; D 4.91; M 4.08; L 3.91; V 4.08; N 4.58; E 4.64; Y 4.26; H 4.09; Q 4.19; K 4.61; A 3.92; I 3.81; W 3.92
R21: L 4.36; M 4.52; C 4.84; D 4.65; A 5.06; N 4.73; K 4.44; F 4.58; G 4.39; E 4.8; I 3.94; P 3.66; H 3.99
E15: C 4.68; G 4.43; W 3.87; I 4.63; S 4.12; Q 4.52; D 4.55; H 4.55; T 4.22; F 4.36; V 4.64; A 4.78; K 3.6; R 3.99; L 4.16; N 5.4; Y 4.21; P 4.44; M 4.72
D17: P 4.33; E 5.31; L 4.52; I 3.98; A 4.3; C 4.07; M 4.49; K 4.99; G 4.24; V 3.99; Y 4.88; F 4.73; T 4.66; N 4.32; W 4.33; Q 4.53; R 4.82; H 4.81
A14: D 4.49; M 4.34; L 4.33; V 4.58; N 4.44; F 4.11; T 4.97; W 4.45; S 4.7; I 4.28; E 5.11; Q 4.8; H 4.34; Y 4.6; P 4.97; R 4.52; K 4.61; G 3.91
R20: M 4.38; H 5.18; Q 4.6; K 4.64; G 4.91; P 5.45; C 4.45; F 4.04; I 4.36; E 4.52; A 4.25; T 4.82; S 5.26; V 4.65; W 4.41; Y 4.61; N 4.75; D 4.11; L 4.64
